# Values quoted from earlier work, collected in US8013186B2, “Haloalkyl containing compounds as cysteine protease inhibitors” (Virobay, Inc., priority 2004, dated 2011).
# Conditions: in clinical trials
substance,measurement,value
OKT3: murine monoclonal antibody directed towards CD-3 domain of activated T-cells,patients administered OKT3 who produce antibodies versus the therapy,20-40%
